In PMC11241417 one finds ratio between monomeric and dimeric URH1p in the sample and stoichiometry N data, which are given here for one substance.

The target of this assay is URH1p riboside hydrolase from Saccharomyces cerevisiae (S. cerevisiae) (UniProt Q04179). The assay is described as follows: AUC; sedimentation velocity, absorbance 280 nm, 45,000 rpm; samples kept at 4 °C for two weeks; 2.6, 5.2, 10.4 and 15.6 µM; monomer to disulphide-linked dimer.

By stoichiometry N is commonly meant a count of units in the complex or per binding partner. In the case of “URH1p riboside hydrolase from Saccharomyces cerevisiae (from UniProt Q04179 2-340) (enzyme)”, the ratio between monomeric and dimeric URH1p in the sample amounted to 33%; the stoichiometry N came to 2.
